Source: publication doi:10.1101/270363 (bioRxiv, 2018)

B1: WH2 fragment of nPIST (200th - 289th aa) (domain or fragment)
chain: EVYGARLAAKYLDKELAGRVQQIQLLGRDMKGPAHDKLWNQLEAEIHLHRHKTVIRACRGRNDLKRPMQAPPGHDQDSLKKSQGVGPIRK
B2: CC-WH2 fragment of nPIST (1st - 267th aa) (domain or fragment)
chain: MSAGGPCPAGAGGGPGGSSCPVGVSPGGVSMFRWLEVLEKEFDKAFVDVDLLLGEIDPDQADITYEGRQKMTSLSSCFAQLCHKAQTVSQINHKLEAQLVDLRSELTETQAEKVVLEKEVHEQLLQLHSTQLQLHAKTGQSVDSGAIKAKLSVHSVEDLERELEANKTEKVKEARLEAEVKLLRKENEALRRHIAVLQAEVYGARLAAKYLDKELAGRVQQIQLLGRDMKGPAHDKLWNQLEAEIHLHRHKTVIRACRGRNDLKRPM
B3: CC1 fragment of nPIST (1st - 138th aa) (domain or fragment)
chain: MSAGGPCPAGAGGGPGGSSCPVGVSPGGVSMFRWLEVLEKEFDKAFVDVDLLLGEIDPDQADITYEGRQKMTSLSSCFAQLCHKAQTVSQINHKLEAQLVDLRSELTETQAEKVVLEKEVHEQLLQLHSTQLQLHAKT
B4: CC2 fragment of nPIST (140th - 210th aa) (domain or fragment)
chain: QSVDSGAIKAKLSVHSVEDLERELEANKTEKVKEARLEAEVKLLRKENEALRRHIAVLQAEVYGARLAAKY

target: F-actin (filamentous actin) (rabbit, UniProt P68135 1-377); test: co-sedimentation

Binder	binding result
B1	binds
B2	binds
B3	binds
B4	binds
